The target in this test is CD19 on Nalm6 leukemia cells (UniProt P15391). The test is described as follows: cell-based or functional assay.
UniProt P15391, sequence (P15391 20-556 limits assumed): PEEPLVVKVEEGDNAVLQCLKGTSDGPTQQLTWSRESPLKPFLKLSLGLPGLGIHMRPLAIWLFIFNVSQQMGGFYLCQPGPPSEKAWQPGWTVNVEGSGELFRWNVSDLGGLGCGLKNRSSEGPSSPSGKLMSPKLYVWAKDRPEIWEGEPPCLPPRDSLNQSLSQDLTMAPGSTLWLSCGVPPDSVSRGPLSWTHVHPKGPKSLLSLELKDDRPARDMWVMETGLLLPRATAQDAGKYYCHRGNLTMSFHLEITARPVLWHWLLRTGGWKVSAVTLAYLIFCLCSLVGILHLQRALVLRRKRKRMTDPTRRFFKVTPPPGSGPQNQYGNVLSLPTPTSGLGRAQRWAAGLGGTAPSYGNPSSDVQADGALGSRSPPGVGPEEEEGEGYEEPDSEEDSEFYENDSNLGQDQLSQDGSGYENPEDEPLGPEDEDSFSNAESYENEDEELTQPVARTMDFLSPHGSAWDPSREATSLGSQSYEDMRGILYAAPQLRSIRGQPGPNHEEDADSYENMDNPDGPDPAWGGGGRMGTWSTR

B1: CD19 CAR (receptor, from a related filing)
chain: EVKLQQSGAELVRPGSSVKISCKASGYAFSSYWMNWVKQRPGQGLEWIGQIYPGDGDTNYNGKFKGQATLTADKSSSTAYMQLSGLTSEDSAVYFCARKTISSVVDFYFDYWGQGTTVTVSSGGGGSGGGGSGGGGSDIELTQSPKFMSTSVGDRVSVTCKASQNVGTNVAWYQQKPGQSPKPLIYSATYRNSGVPDRFTGSGSGTDFTLTITNVQSKDLADYFCQQYNRYPYTSGGGTKLEIKRAAAIEVMYPPPYLDNEKSNGTIIHVKGKHLCPSPLFPGPSKPFWVLVVVGGVLACYSLLVTVAFIIFWVRSKRSRLLHSDYMNMTPRRPGPTRKHYQPYAPPRDFAAYRSRVKFSRSADAPAYQQGQNQLYNELNLGRREEYDVLDKRRGRDPEMGGKPRRKNPQEGLYNELQKDKMAEAYSEIGMKGERRRGKGHDGLYQGLSTATKDTYDALHMQALPPR
For B1, the Tumor Cell Killing Percentage (Nalm6 killed, 22 h co-culture, FACS with counting beads); E/T 0.024; CD19 level high came out at 32%; the Tumor Cell Killing Percentage (Nalm6 killed, 22 h co-culture, FACS with counting beads); E/T 0.024; CD19 level low is 16.3%; the Tumor Cell Killing Percentage (Nalm6 killed, 22 h co-culture, FACS with counting beads); E/T 0.024; CD19 level medium came out at 17.2%; the Tumor Cell Killing Percentage (Nalm6 killed, 22 h co-culture, FACS with counting beads); E/T 0.024; CD19 level very low turned out to be 0%. The same molecule displayed a Tumor Cell Killing Percentage (Nalm6 killed, 22 h co-culture, FACS with counting beads); E/T 0.12; CD19 level high of 63.4%; a Tumor Cell Killing Percentage (Nalm6 killed, 22 h co-culture, FACS with counting beads); E/T 0.12; CD19 level low of 53.3%; a Tumor Cell Killing Percentage (Nalm6 killed, 22 h co-culture, FACS with counting beads); E/T 0.12; CD19 level medium of 63.6%; a Tumor Cell Killing Percentage (Nalm6 killed, 22 h co-culture, FACS with counting beads); E/T 0.12; CD19 level very low of 0.4%. Moreover, the Tumor Cell Killing Percentage (Nalm6 killed, 22 h co-culture, FACS with counting beads); E/T 0.6; CD19 level high was found to be 84.4%; the Tumor Cell Killing Percentage (Nalm6 killed, 22 h co-culture, FACS with counting beads); E/T 0.6; CD19 level low is 77.2%; the Tumor Cell Killing Percentage (Nalm6 killed, 22 h co-culture, FACS with counting beads); E/T 0.6; CD19 level medium stood at 79.4%; the Tumor Cell Killing Percentage (Nalm6 killed, 22 h co-culture, FACS with counting beads); E/T 0.6; CD19 level very low amounted to 8.37%.

The values are drawn from patent US20210030804A1.
